Key:
[1] = molecular target: T1, VEGF (R&D systems, Minneapolis, Minn.) (UniProt P15692-4 27-191, limits assumed); test: BIAcore SPR, improvement over WT
Description: (§1) RL was kept low to minimize avidity due to the dimeric nature of VEGF. No capture of the antibody was made on the reference surface to serve as a negative control. Subsequently, VEGF was injected to all flow cells at a flow rate of 50 μL/min for two minutes to monitor association followed by a 25-minute flow of HBS-P running buffer (10 mM HEPES, 150 mM sodium chloride, 0.005% P-20, pH 7.4) to monitor the dissociation phase. At each cycle, VEGF, in 6 different concentrations of VEGF ranging between 0 nM and 512 nM and at four-fold increments, was injected over the surface. […] Binding data were fit to the 1:1 Langmuir model to extract binding constants from the BIAevaluate software. Double referencing was applied in each analysis to eliminate background responses from the reference surface and buffer only control. All the binding kinetics data were analyzed at least three separate determinations.

[2] = molecular target: T1, VEGF (R&D systems, Minneapolis, Minn.); test: BIAcore SPR, WT/mutant
Description: as §1

[3] = molecular target: T1, VEGF (R&D systems, Minneapolis, Minn.); test: BIAcore SPR
Description: as §1

[4] = molecular target: T1, VEGF (R&D systems, Minneapolis, Minn.); test: BIAcore SPR, mutant/WT
Description: as §1

[5] = molecular target: T2, unlabeled human VEGF (ELISA coat) (human, UniProt P15692-4 27-191, limits assumed); test: ELISA overnight, EC50 WT/EC50 mutant
T2 sequence (P15692 other isoform, or with tags, fused parts or gaps limits assumed): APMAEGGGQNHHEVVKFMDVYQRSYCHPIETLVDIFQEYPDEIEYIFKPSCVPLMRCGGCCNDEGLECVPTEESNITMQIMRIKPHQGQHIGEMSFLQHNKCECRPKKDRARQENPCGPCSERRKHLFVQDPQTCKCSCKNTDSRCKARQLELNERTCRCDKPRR
Description: (§2) To detect identified variants binding to antigen, ELISA plates (Nunc-Immuno MaxiSorp plates, Nalge Nunc, Rochester, N.Y.) were coated overnight at 4° C. with unlabeled human VEGF at 1 μg/mL in 0.2 M sodium carbonate-bicarbonate buffer (pH 9.4, Pierce, Rockford, Ill.). The plates were then blocked with SuperBlock Blocking Buffer (Pierce, Rockford, Ill.) for 30 min and washed with Washing Buffer (PBS containing 0.1% Tween 20). All the washing steps were performed for three times. […] The plates were washed and 100 μL of goat anti-human kappa HRP-conjugated antibody (Southern Biotech, Birmingham, Ala.) diluted at 1:1000 in ELISA buffer was added to each well. After 30 minutes of incubation, plates were washed and bound antibodies were detected by addition of TMB 1 Component HRP Microwell substrate (BioFx #TMBW-1000-01). The reaction was terminated by addition of 100 μL/well of 650 nM Stop Reagent for TMB Microwell substrate and the absorbance was measured at 650 nm using a VERSAmax microplate reader (Molecular Devices, Sunnyvale, Calif.). Data were fitted using nonlinear regression with the software […]

[6] = molecular target: T3, human VEGF-A residues 27-191 of Accession #AAV38412 (human, UniProt P15692 27-191); test: BIAcore SPR
T3 construct: range 27-191
T3 sequence (P15692 other isoform, or with tags, fused parts or gaps limits assumed): as above
Description: (§3) The binding kinetics and affinity of the antibodies for VEGF (human VEGF-A residues 27-191 of Accession #AAV38412) was determined by using a BIAcore T200 surface plasmon resonance system (BIAcore, GE Healthcare, Piscataway, N.J.). Coupling running buffer was HBS-EP+ running buffer (10 mM HEPES, 150 mM sodium chloride, 3 mM EDTA 0.05% P-20, pH 7.4); assay running buffer was HBS-EP+ with 300 mM sodium chloride and 0.1 mg/mL BSA (Sigma A7906). Polyclonal goat anti-human Fc (Thermo Scientific prod#31125) was first immobilized to the biosensor surface in 10 mM sodium acetate, pH 4.5 using standard BIAcore amine coupling reagents (N-ethyl-N′-dimethylamino-propylcarbodiimide, EDC; N-hydroxysuccinimide, NHS; and ethanolamine HCl, pH 8.5). For binding kinetics assay a series of cycles were performed, each cycle consisted of 1) mAb capture, 2) Ag or buffer injection, 3) dissociation phase and 4) regeneration. Briefly, anti-VEGF antibodies were captured on parallel surfaces at a low flow rate of 10 μL/min. Capture levels were kept low to minimize avidity due to the dimeric nature of VEGF. No capture of the antibody was made on the reference surface to serve for primary referencing and as a negative control. Subsequently, VEGF or buffer only was injected to all flow cells at a flow rate of 80 μL/min for three minutes to monitor association followed by a 20-minute flow of assay rinning buffer at a flow rate of 80 μL/min to monitor dissociation. […] At the end of each cycle the surface was regenerated with 10 mM glycine, pH 1.5 at a flow rate of 60 μL/min in pulses of 60 and 10 sec. Binding data were fit to the 1:1 Langmuir model with mass transport term included using Biacore T200 Evaluation Software to determine the binding constants.

[7] = molecular target: T2, unlabeled human VEGF (ELISA coat); test: ELISA 1 hr, EC50 WT/EC50 mutant
Description: as §2

[8] = molecular target: T3, human VEGF-A residues 27-191 of …; test: BIAcore SPR, KD WT/KD mutant
Description: as §3

T1 sequence (P15692 other isoform, or with tags, fused parts or gaps limits assumed): as above

Binder | ΔKD [1] [fold] | Δkoff [2] [fold] | Kd [3] [nM] | koff [3] [s⁻¹] | kon [3] [M⁻¹ s⁻¹] | Δkon [4] [fold] | ELISA o/n binding [5] [fold] | Kd [6] [nM] | koff [6] [s⁻¹] | kon [6] [M⁻¹ s⁻¹] | ELISA 1hr binding [7] [fold] | affinity improvement [8] [fold]
83 (antibody, human IgG1, V domains shown) VH: EVQLVESGGGLVQPGGSLRLSCAASGYTFTFYGMNWVRQAPGKGLEWVGWINTYTGEPTYAADFKRRFTFSLDTSKSTAYLQMNSLRAEDTAVYYCAKYPPYDGGSHWYFDVWGQGTLVTVSS VL: DIQMTQSPSSLSASVGDRVTITCSASQDISNYLNWYQQKPGKAPKVLIYFTSSLHSGVPSRFSGSGSGTDFTLTISSLQPEDFATYYCQQYSTVPWTFGQGTKVEIKR | 18.6 | 1.8 | 0.106 | 0.000194 | 1.88e+06 | 10.4 |  |  |  |  |  | 
T30 R (anti-VEGF IgG) (antibody, V domains shown, copies: 2 + 2) VH: EVQLVESGGGLVQPGGSLRLSCAASGYTFRNYGMNWVRQAPGKGLEWVGWINTYTGEPTYAADFKRRFTFSLDTSKSTAYLQMNSLRAEDTAVYYCAKYPHYYGSSHWYFDVWGQGTLVTVSS VL: DIQMTQSPSSLSASVGDRVTITCSASQDISNYLNWYQQKPGKAPKVLIYFTSSLHSGVPSRFSGSGSGTDFTLTISSLQPEDFATYYCQQYSTVPWTFGQGTKVEIK |  |  |  |  |  |  | 3.2 | 0.644 | 6.76e-05 | 105000 | 2.9 | 1.3
T30 N (anti-VEGF IgG) (antibody, V domains shown, copies: 2 + 2) VH: EVQLVESGGGLVQPGGSLRLSCAASGYTFNNYGMNWVRQAPGKGLEWVGWINTYTGEPTYAADFKRRFTFSLDTSKSTAYLQMNSLRAEDTAVYYCAKYPHYYGSSHWYFDVWGQGTLVTVSS VL: DIQMTQSPSSLSASVGDRVTITCSASQDISNYLNWYQQKPGKAPKVLIYFTSSLHSGVPSRFSGSGSGTDFTLTISSLQPEDFATYYCQQYSTVPWTFGQGTKVEIK |  |  |  |  |  |  | 4 | 0.303 | 5.14e-05 | 170000 | 2.4 | 1.7
84 (antibody, human IgG1, V domains shown) VH: EVQLVESGGGLVQPGGSLRLSCAASGYTFTFYGMNWVRQAPGKGLEWVGWINTYTGEPTYAADFKRRFTFSLDTSKSTAYLQMNSLRAEDTAVYYCAKYPPYEGSSHWYFDVWGQGTLVTVSS VL: DIQMTQSPSSLSASVGDRVTITCSASQDISNYLNWYQQKPGKAPKVLIYFTSSLHSGVPSRFSGSGSGTDFTLTISSLQPEDFATYYCQQYSTVPWTFGQGTKVEIKR | 15.3 | 1.9 | 0.128 | 0.000182 | 1.6e+06 | 8.9 |  |  |  |  |  | 
T30 W (anti-VEGF IgG) (antibody, V domains shown, copies: 2 + 2) VH: EVQLVESGGGLVQPGGSLRLSCAASGYTFWNYGMNWVRQAPGKGLEWVGWINTYTGEPTYAADFKRRFTFSLDTSKSTAYLQMNSLRAEDTAVYYCAKYPHYYGSSHWYFDVWGQGTLVTVSS VL: DIQMTQSPSSLSASVGDRVTITCSASQDISNYLNWYQQKPGKAPKVLIYFTSSLHSGVPSRFSGSGSGTDFTLTISSLQPEDFATYYCQQYSTVPWTFGQGTKVEIK |  |  |  |  |  |  | 4.5 | 0.309 | 5.74e-05 | 186000 | 2.9 | 1.6

Further binders by falling Kd [3], results first:

ΔKD [1] [fold] | Δkoff [2] [fold] | Kd [3] [nM] | koff [3] [s⁻¹] | kon [3] [M⁻¹ s⁻¹] | Δkon [4] [fold] | ELISA o/n binding [5] [fold] | Kd [6] [nM] | koff [6] [s⁻¹] | kon [6] [M⁻¹ s⁻¹] | ELISA 1hr binding [7] [fold] | affinity improvement [8] [fold] | Binder
2.3 | 1.6 | 0.857 | 0.00022 | 258000 | 1.4 |  |  |  |  |  |  | 94 (antibody, human IgG1, V domains shown) VH: EVQLVESGGGLVQPGGSLRLSCAASGYTFTFYGMNWVRQAPGKGLEWVGWINTYTGEPTYAADFKRRFTFSLDTSKSTAYLQMNSLRAEDTAVYYCAKYPHYYGGSHWYFDVWGQGTLVTVSS VL: DIQMTQSPSSLSASVGDRVTITCSASQDISNYLNWYQQKPGKAPKVLIYFTSSLHSGVPSRFSGSGSGTDFTLTISSLQPEDFATYYCQQYSTVPWTFGQGTKVEIKR
6.3 | 1.8 | 0.311 | 0.000197 | 645000 | 3.6 |  |  |  |  |  |  | 90 (antibody, human IgG1, V domains shown) VH: EVQLVESGGGLVQPGGSLRLSCAASGYTFTFYGMNWVRQAPGKGLEWVGWINTYTGEPTYAADFKRRFTFSLDTSKSTAYLQMNSLRAEDTAVYYCAKYPDYYGSSHWYFDVWGQGTLVTVSS VL: DIQMTQSPSSLSASVGDRVTITCSASQDISNYLNWYQQKPGKAPKVLIYFTSSLHSGVPSRFSGSGSGTDFTLTISSLQPEDFATYYCQQYSTVPWTFGQGTKVEIKR
7 | 1.4 | 0.282 | 0.000249 | 904000 | 5 |  |  |  |  |  |  | 89 (antibody, human IgG1, V domains shown) VH: EVQLVESGGGLVQPGGSLRLSCAASGYTFTFYGMNWVRQAPGKGLEWVGWINTYTGEPTYAADFKRRFTFSLDTSKSTAYLQMNSLRAEDTAVYYCAKYPPYDGSSHWYFDVWGQGTLVTVSS VL: DIQMTQSPSSLSASVGDRVTITCSASQDISNYLNWYQQKPGKAPKVLIYFTSSLHSGVPSRFSGSGSGTDFTLTISSLQPEDFATYYCQQYSTVPWTFGQGTKVEIKR
9.6 | 2.2 | 0.204 | 0.00016 | 824000 | 4.6 |  |  |  |  |  |  | 87 (antibody, human IgG1, V domains shown) VH: EVQLVESGGGLVQPGGSLRLSCAASGYTFTFYGMNWVRQAPGKGLEWVGWINTYTGEPTYAADFKRRFTFSLDTSKSTAYLQMNSLRAEDTAVYYCAKYPEYDGGSHWYFDVWGQGTLVTVSS VL: DIQMTQSPSSLSASVGDRVTITCSASQDISNYLNWYQQKPGKAPKVLIYFTSSLHSGVPSRFSGSGSGTDFTLTISSLQPEDFATYYCQQYSTVPWTFGQGTKVEIKR
11 | 1.5 | 0.179 | 0.000238 | 1.33e+06 | 7.4 |  |  |  |  |  |  | 86 (antibody, human IgG1, V domains shown) VH: EVQLVESGGGLVQPGGSLRLSCAASGYTFTFYGMNWVRQAPGKGLEWVGWINTYTGEPTYAADFKRRFTFSLDTSKSTAYLQMNSLRAEDTAVYYCAKYPDYEGSSHWYFDVWGQGTLVTVSS VL: DIQMTQSPSSLSASVGDRVTITCSASQDISNYLNWYQQKPGKAPKVLIYFTSSLHSGVPSRFSGSGSGTDFTLTISSLQPEDFATYYCQQYSTVPWTFGQGTKVEIKR
14.1 | 2 | 0.14 | 0.000175 | 1.25e+06 | 6.9 |  |  |  |  |  |  | 85 (antibody, human IgG1, V domains shown) VH: EVQLVESGGGLVQPGGSLRLSCAASGYTFTFYGMNWVRQAPGKGLEWVGWINTYTGEPTYAADFKRRFTFSLDTSKSTAYLQMNSLRAEDTAVYYCAKYPEYEGSSHWYFDVWGQGTLVTVSS VL: DIQMTQSPSSLSASVGDRVTITCSASQDISNYLNWYQQKPGKAPKVLIYFTSSLHSGVPSRFSGSGSGTDFTLTISSLQPEDFATYYCQQYSTVPWTFGQGTKVEIKR

Source: US20140154255A1 (AbbVie / Abbott, published 2014)
